Series [1] concerns the molecule itself. In words: size exclusion chromatography (Superdex 200 10/300 GL), self-association. As to the method:
FIG. 5. Multimeric complexes increase AP regulatory activity of MFHR1 in human serum. A) Size exclusion chromatography (Superdex 200 10/300 GL) of bovine serum albumin (BSA), serum plasma derived FH (hFH) and MFHR1. The three compositions of BSA mixture presented different retention volumes based on molecular mass, which was I. BSA trimer (198 kDa, 10.35 ml), II. BSA dimer (132 kDa, 11.45 ml) and III. BSA monomer (66 kDa, 13.4 ml). […] Theoretical trimer (II. 10.7), dimer (III. 11.4) intermediates (IV.-V.) or monomeric (IV. 13.5) MFHR1 are indicated in the elution profile. B) Analysis of MFHR1 after elution from SEC column as performed in A. 20 μl protein from fractions was loaded on a 10% SDS-PAGE and silver stained C) Afterwards, single or pooled MFHR1 SEC fractions were added into human serum at 10 nM and AP activation was proceeded by incubation in LPS coated wells using AP specific buffer conditions. Regulatory efficiency of MFHR1 fractions was analyzed by measuring C5b-9 complex formation. AP activity of untreated control serum was set to 100%.

For series [2], the target named is C5 (complement component C5) (UniProt P01031 19-673; P01031 678-1676). In words: ELISA, hFH (133 nM) immobilised, C5 in solution, detected with monoclonal C5 antibodies. The procedure: FIG. 3. MFHR1 binds C5 and regulates terminal pathway activation by inhibition of the C5 convertase/C5 cleavage and MAC formation. A) MFHR1 binds to C5 as determined by ELISA. Equimolar amounts of MFHR1, full length FHR1, hFH or BSA (133 nM) were immobilized to Nunc plates and incubated with increasing concentrations (10, 20, 40 μg/ml) of C5. Binding was detected using monoclonal C5 antibodies and HRP-labelled secondary antibodies. Data are mean±SD from n=3 experiments B) MFHR1 inhibits AP activation by blockade of C5 cleavage. Cobra venom factor (CVF) C5 convertase was generated on sheep erythrocytes (sE) after adding Factor B (FB) and Factor D (FD). Hemolysis was induced after adding C5, C6, C7, C8 and C9 components and detected at 414 nm. […] C) MFHR1 inhibits formation of the membrane attack complex (MAC) on sE. MAC formation on sE was induced by incubation with C5b6, C7, C8 and C9 components and detected by hemolysis of cells. Preincubation of C5b6 with MFHR1, FHR1 or Eculizumab inhibited hemolysis at significant levels compared to hFH or BSA. […] In B and C control without regulator (w/o) was set as 100%. All data represent mean values ±SD of 3 separate experiments. ***P<0.001 vs. w/o control, one-way ANOVA with Bonferroni multiple comparison test.
C5 (complement component C5), sequence (P01031 19-673 limits assumed, chain 1 of 2): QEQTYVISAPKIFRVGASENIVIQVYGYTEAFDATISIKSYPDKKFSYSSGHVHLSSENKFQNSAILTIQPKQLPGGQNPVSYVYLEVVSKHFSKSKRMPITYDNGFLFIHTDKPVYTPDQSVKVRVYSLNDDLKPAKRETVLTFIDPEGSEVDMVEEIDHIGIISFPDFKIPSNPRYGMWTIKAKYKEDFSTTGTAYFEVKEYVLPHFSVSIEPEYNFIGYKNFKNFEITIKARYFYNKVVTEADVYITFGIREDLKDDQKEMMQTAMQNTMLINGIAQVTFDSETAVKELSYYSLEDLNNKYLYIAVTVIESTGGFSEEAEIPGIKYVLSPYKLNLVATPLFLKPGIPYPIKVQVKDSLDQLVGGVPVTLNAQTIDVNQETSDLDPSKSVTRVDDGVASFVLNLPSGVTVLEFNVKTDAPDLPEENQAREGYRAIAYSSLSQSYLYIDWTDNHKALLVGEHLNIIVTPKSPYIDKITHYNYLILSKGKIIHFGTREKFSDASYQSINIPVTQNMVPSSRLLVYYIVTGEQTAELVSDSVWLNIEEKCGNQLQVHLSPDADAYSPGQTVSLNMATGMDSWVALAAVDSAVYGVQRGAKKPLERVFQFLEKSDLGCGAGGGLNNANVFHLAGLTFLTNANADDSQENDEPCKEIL
C5 (complement component C5), sequence (P01031 678-1676 limits assumed, chain 2 of 2): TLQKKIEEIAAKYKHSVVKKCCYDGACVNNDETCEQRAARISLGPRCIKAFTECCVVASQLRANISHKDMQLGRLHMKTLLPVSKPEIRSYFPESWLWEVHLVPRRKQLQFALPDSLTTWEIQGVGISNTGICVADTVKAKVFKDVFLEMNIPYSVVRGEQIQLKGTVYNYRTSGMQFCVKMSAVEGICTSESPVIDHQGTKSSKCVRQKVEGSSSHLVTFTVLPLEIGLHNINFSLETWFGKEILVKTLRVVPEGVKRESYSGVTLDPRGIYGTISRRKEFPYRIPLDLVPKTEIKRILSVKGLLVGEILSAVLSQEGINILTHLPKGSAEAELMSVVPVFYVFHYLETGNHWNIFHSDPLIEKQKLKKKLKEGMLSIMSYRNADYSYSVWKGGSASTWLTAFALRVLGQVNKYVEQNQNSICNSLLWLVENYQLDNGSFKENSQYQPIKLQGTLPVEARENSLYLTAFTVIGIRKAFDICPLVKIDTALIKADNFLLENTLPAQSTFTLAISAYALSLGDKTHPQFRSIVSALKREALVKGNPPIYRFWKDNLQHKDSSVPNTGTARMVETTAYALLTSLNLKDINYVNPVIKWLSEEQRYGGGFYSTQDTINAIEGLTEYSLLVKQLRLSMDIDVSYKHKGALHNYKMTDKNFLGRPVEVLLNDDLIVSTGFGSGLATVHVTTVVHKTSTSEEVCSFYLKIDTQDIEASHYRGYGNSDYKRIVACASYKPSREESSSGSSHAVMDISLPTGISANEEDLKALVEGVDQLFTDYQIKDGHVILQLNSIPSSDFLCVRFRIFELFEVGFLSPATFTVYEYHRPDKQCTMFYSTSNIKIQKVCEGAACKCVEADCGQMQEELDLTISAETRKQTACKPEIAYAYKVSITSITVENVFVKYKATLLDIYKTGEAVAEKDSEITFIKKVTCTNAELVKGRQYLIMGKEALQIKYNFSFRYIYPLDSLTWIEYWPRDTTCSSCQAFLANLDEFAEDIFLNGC

B1: MFHR1 (His-tag - FHR1(SCR1-2)-FH(SCR1-4)-FH(SCR19-20)) (other)
chain: ADLGSHHHHHHHHHHDYDRSFCDFPKINHGILYDEEKYKPFSQVPTGEVFYYSCEYNFVSPSKSFWTRITCTEEGWSPTPKCLRLCFFPFVENGHSESSGQTHLEGDTVQIICNTGYRLQNNENNISCVERGWSTPPKCRSEDCNELPPRRNTEILTGSWSDQTYPEGTQAIYKCRPGYRSLGNVIMVCRKGEWVALNPLRKCQKRPCGHPGDTPFGTFTLTGGNVFEYGVKAVYTCNEGYQLLGEINYRECDTDGWTNDIPICEVVKCLPVTAPENGKIVSSAMEPDREYHFGQAVRFVCNSGYKIEGDEEMHCSDDGFWSKEKPKCVEISCKSPDVINGSPISQKIIYKENERFQYKCNMGYEYSERGDAVCTESGWRPLPSCEDSTGKCGPPPPIDNGDITSFPLSVYAPASSVEYQCQNLYQLEGNKRITCRNGQWSEPPKCLHPCVISREIMENYNIALRWTAKQKLYSRTGESVEFVCKRGYRLSSRSHTLRTTCWDGKLEYPTCAKR
notes: Recombinant fusion protein expressed in SF9 insect cells (baculovirus); By size exclusion chromatography it runs mostly as a multimer; also called MFHR1 with His tag
In the case of B1, the binding result in series [1] was “binds”.

B2: human plasma derived Factor H (hFH) (other)
chain: EDCNELPPRRNTEILTGSWSDQTYPEGTQAIYKCRPGYRSLGNVIMVCRKGEWVALNPLRKCQKRPCGHPGDTPFGTFTLTGGNVFEYGVKAVYTCNEGYQLLGEINYRECDTDGWTNDIPICEVVKCLPVTAPENGKIVSSAMEPDREYHFGQAVRFVCNSGYKIEGDEEMHCSDDGFWSKEKPKCVEISCKSPDVINGSPISQKIIYKENERFQYKCNMGYEYSERGDAVCTESGWRPLPSCEEKSCDNPYIPNGDYSPLRIKHRTGDEITYQCRNGFYPATRGNTAKCTSTGWIPAPRCTLKPCDYPDIKHGGLYHENMRRPYFPVAVGKYYSYYCDEHFETPSGSYWDHIHCTQDGWSPAVPCLRKCYFPYLENGYNQNYGRKFVQGKSIDVACHPGYALPKAQTTVTCMENGWSPTPRCIRVKTCSKSSIDIENGFISESQYTYALKEKAKYQCKLGYVTADGETSGSITCGKDGWSAQPTCIKSCDIPVFMNARTKNDFTWFKLNDTLDYECHDGYESNTGSTTGSIVCGYNGWSDLPICYERECELPKIDVHLVPDRKKDQYKVGEVLKFSCKPGFTIVGPNSVQCYHFGLSPDLPICKEQVQSCGPPPELLNGNVKEKTKEEYGHSEVVEYYCNPRFLMKGPNKIQCVDGEWTTLPVCIVEESTCGDIPELEHGWAQLSSPPYYYGDSVEFNCSESFTMIGHRSITCIHGVWTQLPQCVAIDKLKKCKSSNLIILEEHLKNKKEFDHNSNIRYRCRGKEGWIHTVCINGRWDPEVNCSMAQIQLCPPPPQIPNSHNMTTTLNYRDGEKVSVLCQENYLIQEGEEITCKDGRWQSIPLCVEKIPCSQPPQIEHGTINSSRSSQESYAHGTKLSYTCEGGFRISEENETTCYMGKWSSPPQCEGLPCKSPPEISHGVVAHMSDSYQYGEEVTYKCFEGFGIDGPAIAKCLGEKWSHPPSCIKTDCLSLPSFENAIPMGEKKDVYKAGEQVTYTCATYYKMDGASNVTCINSRWTGRPTCRDTSCVNPPTVQNAYIVSRQMSKYPSGERVRYQCRSPYEMFGDEEVMCLNGNWTEPPQCKDSTGKCGPPPPIDNGDITSFPLSVYAPASSVEYQCQNLYQLEGNKRITCRNGQWSEPPKCLHPCVISREIMENYNIALRWTAKQKLYSRTGESVEFVCKRGYRLSSRSHTLRTTCWDGKLEYPTCAKR
notes: Purified from human plasma, so the mature protein; also called FHplasma; plasma purified FH
In the case of B2, in series [2], the binding result was “no binding (tested: 10, 20, 40 µg/ml of C5)”.

Source of the values: patent US20190300589A1 (GREENOVATION BIOTECH, published 2019).
